Measurements as given in patent US20190284293A1, “COMBINATION THERAPY WITH ANTI-CD73 ANTIBODIES” (BRISTOL-MYERS SQUIBB COMPANY, priority 2016, published 2019).
Where a chain is given by its changes, count along the chain named.

T1: CD32a-R131 (FcgRIIa-R131) (Homo sapiens, UniProt P12318, H167R)
T1 sequence (P12318 34-217 H167R limits assumed): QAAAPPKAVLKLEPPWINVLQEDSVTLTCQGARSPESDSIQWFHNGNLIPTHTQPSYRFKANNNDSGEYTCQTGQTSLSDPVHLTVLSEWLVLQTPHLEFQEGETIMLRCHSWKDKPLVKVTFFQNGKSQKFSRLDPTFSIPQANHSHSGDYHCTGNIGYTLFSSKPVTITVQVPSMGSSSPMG

T2: CD32a-H131 (FcgRIIa-H131) (Homo sapiens, UniProt P12318)
T2 sequence (P12318 34-217 limits assumed): T1 sequence (P12318 34-217 H167R limits assumed) with R134H

T3: CD32b (FcgRIIb) (Homo sapiens, UniProt P31994)
T3 sequence (P31994 43-310): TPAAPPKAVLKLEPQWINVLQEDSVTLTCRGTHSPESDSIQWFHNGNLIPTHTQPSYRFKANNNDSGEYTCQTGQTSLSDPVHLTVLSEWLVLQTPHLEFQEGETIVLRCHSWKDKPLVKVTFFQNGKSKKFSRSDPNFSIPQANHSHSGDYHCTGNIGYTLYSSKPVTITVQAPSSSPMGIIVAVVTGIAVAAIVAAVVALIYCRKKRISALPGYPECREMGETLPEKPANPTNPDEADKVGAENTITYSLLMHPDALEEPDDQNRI

B1: mAb7-IgG2.3G1-AY-V27 (protein)
constant: ASTKGPSVFPLAPCSRSTSESTAALGCLVKDYFPEPVTVSWNSGALTSGVHTFPAVLQSSGLYSLSSVVTVPSSNFGTQTYTCNVDHKPSNTKVDKTVERKSCVECPPCPAPELLGGPSVFLFPPKPKDTLMISRTPEVTCVVVDVEHEDPEVKFNWYVDGVEVHNAKTKPREEQYNSTYRVVSVLTVLHQDWLNGKEYKCKVSNKALPAPIEKTISKAKGQPREPQVYTLPPSREEMTKNQVSLTCLVKGFYPSDIAVEWESNGQPENNYKTTPPVLDSDGSFFLYSKLTVDKSRWQQGNVFSCSVMHEALHNHYTQKSLSLSPGK
modifications: left off: another chain or arm of the molecule
B2: mAb7-IgG2.5G1-AY-V27 (protein)
constant: B1 constant with C14S, S102C
modifications: left off: another chain or arm of the molecule
B3: mAb8-IgG2.5G1-AY-V27 (protein)
constant: B1 constant with C14S, S102C
modifications: left off: another chain or arm of the molecule
B4: mAb6-IgG2.5 (protein)
constant: ASTKGPSVFPLAPSSRSTSESTAALGCLVKDYFPEPVTVSWNSGALTSGVHTFPAVLQSSGLYSLSSVVTVPSSNFGTQTYTCNVDHKPSNTKVDKTVERKCCVECPPCPAPPVAGPSVFLFPPKPKDTLMISRTPEVTCVVVDVSHEDPEVQFNWYVDGVEVHNAKTKPREEQFNSTFRVVSVLTVVHQDWLNGKEYKCKVSNKGLPAPIEKTISKTKGQPREPQVYTLPPSREEMTKNQVSLTCLVKGFYPSDIAVEWESNGQPENNYKTTPPMLDSDGSFFLYSKLTVDKSRWQQGNVFSCSVMHEALHNHYTQKSLSLSPGK
modifications: left off: another chain or arm of the molecule
B5: mAb5-IgG2.5 (protein)
constant: B4 constant
modifications: left off: another chain or arm of the molecule
B6: mAb13-IgG2.5 (protein)
constant: B4 constant
modifications: left off: another chain or arm of the molecule
B7: mAb4-IgG2.5 (protein)
constant: B4 constant
modifications: left off: another chain or arm of the molecule

Key:
Experiment in all cases: SPR, antibody binding to anti-his Fab captured FcgR-his (% Rmax)
Settings in all cases: 1 μM antibody
CD16B-NA2 (FcgRIIIb-NA2) = CD16B-NA2 (FcgRIIIb-NA2) (Homo sapiens, UniProt O75015)
Method: (§1) The binding of antibodies to Fc gamma receptors (FcγRs or FcgRs) was studied using biosensor technologies including Biacore surface plasmon resonance (SPR) and Fortebio Biolayer Interferometry (BLI). SPR studies were performed on a Biacore T100 instrument (GE Healthcare) at 25° C. The Fab fragment from a murine anti-6×His antibody was immobilized on a CM5 sensor chip using EDC/NHS to a density of −3000 RU. Various his-tagged FcgRs (7 ug/ml) were captured via the C-terminal his-tag using a contact time of 30 s at 10 ul/min, and the binding of 1.0 μM antibody was evaluated in a running buffer of 10 mM NaPO4, 130 mM NaCl, 0.05% p20 (PBS-T) pH 7.1. FcgRs used for these experiments included CD64 (FcgRI), CD32a-H131 (FcgRIIa-H131), CD32a-R131 (FcgRIIa-R131), CD32b (FcgRIIb), CD16a-V158 (FcgRIIIa-V158), CD16b-NA1 (FcgRIIIb-NA1), and CD16B-NA2 (FcgRIIIb-NA2). BLI experiments were performed on a Fortebio Octet RED instrument (Pall, Fortebio) at 25° C. in 10 mM NaPO4, 130 mM NaCl, 0.05% p20 (PBS-T) pH 7.1. Antibodies were captured out of undiluted expression supernatants on protein A coated sensors, followed by the binding of 1 μM hCD32a-H131, hCD32a-R131, hCD32b, hCD16a-V158, or 0.1 μM hCD64 analytes.

[1] = target: T1, CD32a-R131 (FcgRIIa-R131)
Method: as §1

[2] = target: T2, CD32a-H131 (FcgRIIa-H131)
Method: as §1

CD64 (FcgRI) = CD64 (FcgRI) (Homo sapiens, UniProt P12314)
Method: as §1

CD32b (FcgRIIb) = target: T3, CD32b (FcgRIIb)
Method: as §1

[3] = target: CD16a-V158 (FcgRIIIa-V158) (Homo sapiens, UniProt P08637, F176V)
Method: as §1

CD64 (FcgRI), sequence (P12314 16-374): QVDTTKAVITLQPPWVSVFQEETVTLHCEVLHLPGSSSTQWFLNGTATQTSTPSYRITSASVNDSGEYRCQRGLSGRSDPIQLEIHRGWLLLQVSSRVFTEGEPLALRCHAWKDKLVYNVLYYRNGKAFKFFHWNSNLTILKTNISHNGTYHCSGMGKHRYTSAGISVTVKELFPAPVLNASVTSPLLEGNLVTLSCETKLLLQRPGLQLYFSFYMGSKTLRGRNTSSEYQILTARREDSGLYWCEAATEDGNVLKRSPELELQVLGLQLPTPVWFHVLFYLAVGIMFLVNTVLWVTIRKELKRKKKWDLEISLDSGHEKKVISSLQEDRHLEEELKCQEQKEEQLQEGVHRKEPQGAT
CD16a-V158 (FcgRIIIa-V158), sequence (P08637 17-208 F176V limits assumed): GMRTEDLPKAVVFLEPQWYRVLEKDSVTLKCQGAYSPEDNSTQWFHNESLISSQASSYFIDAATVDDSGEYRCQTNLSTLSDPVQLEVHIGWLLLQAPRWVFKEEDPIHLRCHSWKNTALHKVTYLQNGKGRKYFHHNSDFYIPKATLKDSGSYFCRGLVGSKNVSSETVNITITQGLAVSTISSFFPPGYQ
CD16B-NA2 (FcgRIIIb-NA2), sequence (O75015 17-200 limits assumed): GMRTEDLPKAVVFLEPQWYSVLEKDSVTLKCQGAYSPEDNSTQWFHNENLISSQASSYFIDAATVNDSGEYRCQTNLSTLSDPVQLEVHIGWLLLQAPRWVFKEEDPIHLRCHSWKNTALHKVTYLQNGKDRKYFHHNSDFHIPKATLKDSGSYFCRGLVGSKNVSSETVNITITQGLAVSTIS

| Molecule | % Rmax hCD16B-NA2 (CD16B-NA2 (FcgRIIIb-NA2)) | % Rmax hCD32a-R131 [1] | % Rmax hCD32a-H131 [2] | % Rmax hCD64 (CD64 (FcgRI)) | % Rmax hCD32b (CD32b (FcgRIIb)) | % Rmax hCD16a-V158 [3] |
| --- | --- | --- | --- | --- | --- | --- |
| B1 | 7% | 92% | 68% | 84% | 76% | 26% |
| B2 | 9% | 89% | 74% | 81% | 84% | 32% |
| B3 | 10% | 79% | 76% | 77% | 77% | 33% |
| B4 | 0% | 17% | 75% | 3% | 4% | 2% |
| B5 | 1% | 26% | 89% | 6% | 5% | 4% |
| B6 | −2% | 4% | 39% | −2% | −2% | 0% |
| B7 | 0% | 8% | 46% | 2% | 1% | 1% |
